T1: dCas9-Halo (D10A/H840A SpCas9, nuclease-deficient) (Streptococcus pyogenes, UniProt Q99ZW2 SEQ:8-1375)
T1 chain: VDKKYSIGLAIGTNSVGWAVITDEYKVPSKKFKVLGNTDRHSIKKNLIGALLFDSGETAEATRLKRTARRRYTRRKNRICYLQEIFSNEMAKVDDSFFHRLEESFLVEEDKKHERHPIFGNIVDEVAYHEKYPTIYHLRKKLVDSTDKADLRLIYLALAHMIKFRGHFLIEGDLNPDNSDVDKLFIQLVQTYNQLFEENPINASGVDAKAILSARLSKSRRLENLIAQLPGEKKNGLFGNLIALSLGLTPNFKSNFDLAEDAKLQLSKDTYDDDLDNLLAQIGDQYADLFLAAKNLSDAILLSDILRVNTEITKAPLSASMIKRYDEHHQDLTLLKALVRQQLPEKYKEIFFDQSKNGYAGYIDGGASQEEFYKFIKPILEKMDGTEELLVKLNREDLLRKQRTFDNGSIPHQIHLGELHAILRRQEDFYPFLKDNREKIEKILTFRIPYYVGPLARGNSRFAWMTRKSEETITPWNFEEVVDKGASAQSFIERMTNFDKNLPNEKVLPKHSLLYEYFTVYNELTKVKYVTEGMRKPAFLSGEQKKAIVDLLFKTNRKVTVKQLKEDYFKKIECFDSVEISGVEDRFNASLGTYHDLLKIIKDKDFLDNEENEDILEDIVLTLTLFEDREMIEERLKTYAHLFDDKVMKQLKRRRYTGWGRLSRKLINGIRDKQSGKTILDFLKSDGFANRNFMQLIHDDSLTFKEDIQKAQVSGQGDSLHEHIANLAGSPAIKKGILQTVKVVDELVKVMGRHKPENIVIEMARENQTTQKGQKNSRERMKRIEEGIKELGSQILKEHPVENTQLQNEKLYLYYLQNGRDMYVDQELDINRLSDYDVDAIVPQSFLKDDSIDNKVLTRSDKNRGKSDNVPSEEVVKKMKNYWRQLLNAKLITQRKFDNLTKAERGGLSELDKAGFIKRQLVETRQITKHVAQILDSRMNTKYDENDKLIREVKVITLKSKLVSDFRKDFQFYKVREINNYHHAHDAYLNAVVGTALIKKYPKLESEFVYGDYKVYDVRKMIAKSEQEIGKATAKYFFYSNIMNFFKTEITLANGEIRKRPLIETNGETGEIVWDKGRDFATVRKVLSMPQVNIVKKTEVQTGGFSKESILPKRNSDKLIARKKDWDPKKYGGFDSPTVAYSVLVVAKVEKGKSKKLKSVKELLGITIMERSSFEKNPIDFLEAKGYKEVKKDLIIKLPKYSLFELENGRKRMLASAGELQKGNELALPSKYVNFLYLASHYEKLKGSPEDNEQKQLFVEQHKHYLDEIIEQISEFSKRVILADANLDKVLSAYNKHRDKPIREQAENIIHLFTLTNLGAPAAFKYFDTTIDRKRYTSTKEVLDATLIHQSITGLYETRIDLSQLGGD

B1: DY547-sgMajSat (ssRNA)
RNA: CCAUAUUCCACGUCCUACAGGUUUAAGAGCUAUGCUGGAAACAGCAUAGCAAGUUUAAAUAAGGCUAGUCCGUUAUCAACUUGAAAAAGUGGCACCGAGUCGGUGCUUUUUUU
B2: DY547-sgMajSat ; major satellite target DNA (ssRNA ; dsDNA)
RNA: CCAUAUUCCACGUCCUACAGGUUUAAGAGCUAUGCUGGAAACAGCAUAGCAAGUUUAAAUAAGGCUAGUCCGUUAUCAACUUGAAAAAGUGGCACCGAGUCGGUGCUUUUUUU
DNA 1: TTTCTTGCCATATTCCACGTCCTACAGTGG
DNA 2: CCACTGTAGGACGTGGAATATGGCAAGAAA

What was measured:
[1] = molecular target: T1, dCas9-Halo (D10A/H840A SpCas9, …); experiment: EMSA; binary complex; 100-fold unlabelled sgRNA did not displace; room temperature; conditions: tags: N-terminal His6, C-terminal HaloTag; JF549 or JF646 Halo ligand labelled; label: 5'-DY547
Description: The stability of the complex is evident from the lack of competition. The control lane (ctrl) indicates the reaction product from a mixture of Cy5 DNA and 30-fold of unlabeled target DNA with dCas9/sgRNA binary complex. As expected, only a small fraction of Cy5-DNA was incorporated into the dCas9 tertiary complex. (B) Competition EMSAs assessing the stability of the binary complex. (B, Left) The indicated fluorescent binary complex was assembled at room temperature for 10 min and incubated further with the indicated fold-amounts of unlabeled sgMajSat at room temperature for 10 min. Unlabeled target DNA was added to the solution subsequently to form a tertiary complex followed by gel electrophoresis. (B, Right) The DY547 intensity of the bands of the tertiary complex plotted as a histogram. The stability of the binary complex of dCas9 and DY547-sgRNA is evident from the lack of competition. The control lane (ctrl) indicates the reaction product from the binary complex formed by a mixture of DY547-sgMajSat and 100-fold of unlabeled sgMajSat with dCas9 protein. As expected, only a small fraction of DY547-sgMajSat was incorporated into the dCas9 tertiary complex. (C) Schematic of two-color CASFISH methods. […]
To explore the possibility of applying multiple dCas9/sgRNA species in one step for multicolor imaging, we assessed the stability of the binary complex by sgRNA competition assay.

[2] = molecular target: T1, dCas9-Halo (D10A/H840A SpCas9, …); experiment: EMSA; PAM TGG; tertiary complex stable to 100-fold competitor DNA and 1.5 h with 30-fold; 37 C; conditions: tags: N-terminal His6, C-terminal HaloTag; JF549 or JF646 Halo ligand labelled; label: 5'-DY547; Cy5 (EMSA)
Description: The stability of the complex is evident from the lack of competition. Error bars represent SD of three independent experiments.
dCas9 protein and sgRNA were incubated together at room temperature for 10 min to examine the binary complex and subsequently were incubated with target DNA at 37° C. for 15 min to examine the tertiary complex. For the competition assay, an additional binary or tertiary complex reaction was performed after the addition of the competitor molecules. Resulting reaction mixtures were subjected to electrophoresis of 1% agarose gel in 1× Tris/borate/EDTA buffer containing 5 mM MgCl2 and were imaged with GE Typhoon Trio+Imagers.
Simultaneous imaging of multiple chromatin domains or genes is critical for studying chromatin interactions. To explore the possibility of using CASFISH to detect multiple DNA targets simultaneously, we first investigated the binding of CASFISH probes to target DNA by electrophoretic mobility shift assays (EMSA). […] To examine the stability of dCas9/sgMajSat binding to its target DNA, we carried out competition assays by adding excessive amounts of unlabeled target DNA to a preformed tertiary complex of JF549-dCas9/sgMajSat/Cy5-DNA. […]

| Binder | binding result [1] | binding result [2] |
| --- | --- | --- |
| B1 | binds | – |
| B2 | – | binds |

Reference: patent publication US20170268035, “GENOMIC PROBES” (Howard Hughes Medical Institute, published 2017)
